Assays:
[1] = target: T1, human PD1 (hPD1) (human, UniProt Q15116 25-288, limits assumed); assay: ELISA; lysate of hPD1-expressing cells coated on plate, scFv from stable 293A culture medium
T1 construct: Stood in the ELISA as a lysate of cells expressing hPD1

[2] = target: T2, mouse PD1 (mPD1) (mouse, UniProt Q02242 25-288, limits assumed); assay: ELISA; lysate of mPD1-expressing cells coated on plate, scFv from stable 293A culture medium
T2 construct: Stood in the ELISA as a lysate of cells expressing mPD1
T2 sequence (looked up): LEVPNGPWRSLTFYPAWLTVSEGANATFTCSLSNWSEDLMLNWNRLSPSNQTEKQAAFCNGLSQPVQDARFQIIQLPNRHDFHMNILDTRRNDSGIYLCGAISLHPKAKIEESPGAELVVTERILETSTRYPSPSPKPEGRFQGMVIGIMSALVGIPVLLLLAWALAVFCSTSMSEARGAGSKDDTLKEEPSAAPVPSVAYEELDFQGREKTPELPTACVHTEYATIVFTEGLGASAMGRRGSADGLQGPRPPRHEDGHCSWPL

T1 sequence (Q15116 25-288 limits assumed): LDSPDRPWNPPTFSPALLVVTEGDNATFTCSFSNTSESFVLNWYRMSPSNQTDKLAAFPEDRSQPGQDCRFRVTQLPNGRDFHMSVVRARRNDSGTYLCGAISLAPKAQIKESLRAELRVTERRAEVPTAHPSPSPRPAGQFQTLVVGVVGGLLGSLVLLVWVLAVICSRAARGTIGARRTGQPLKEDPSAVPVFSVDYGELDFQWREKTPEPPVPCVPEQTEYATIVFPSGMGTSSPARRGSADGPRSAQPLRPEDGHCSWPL

binding result [1]: binds
binding result [2]: binds
B1: scFvPD1(I) (scFv, not shown: small tags and cut ends)
scFv: QVQLVQSGAEVKKPGASVKVSCKASGYTFTAQYMHWVRQAPGQGLEWMGIINPSGGETGYAQKFQGRVTMTRDTSTSTVYMELSSLRSEDTAVYYCAKEGVADGYGLVDVWGQGTMVTVSSGGGGSGGGGSGGGGSGGGGSEIVLTQSPATLSLSPGERATLSCRASQSVSSYLAWYQQKPGQAPRLLIYDASKRATGIPARFSGSGSGTDFTLTISSLEPEDFAVYYCDQRNNWPLTFGGGTKVEIK
notes: also called single chain variable fragment PD1; PD1scFv
